In IntAct's records for PubMed 19805276:

B1: Stage IV sporulation protein FB (Bacillus subtilis), P26937 (parent)
chain: MNKWLDLILKIHVHPFLWIIAALGLLTGHMKALLCLLLIVLIHELGHAALAVFFSWRIKRVFLLPFGGTVEVEEHGNRPLKEEFAVIIAGPLQHIWLQFAAWMLAEVSVIHQHTFELFTFYNLSILFVNLLPIWPLDGGKLLFLLFSKQLPFQKAHRLNLKTSLCFCLLLGCWVLFVIPLQISAWVLFVFLAVSLFEEYRQRHYIHVRFLLERYYGKNRELEKLLPLTVKAEDKVYHVMAEFKRGCKHPIIIEKSGQKLSQLDENEVLHAYFADKRTNSSMEELLLPY
partner: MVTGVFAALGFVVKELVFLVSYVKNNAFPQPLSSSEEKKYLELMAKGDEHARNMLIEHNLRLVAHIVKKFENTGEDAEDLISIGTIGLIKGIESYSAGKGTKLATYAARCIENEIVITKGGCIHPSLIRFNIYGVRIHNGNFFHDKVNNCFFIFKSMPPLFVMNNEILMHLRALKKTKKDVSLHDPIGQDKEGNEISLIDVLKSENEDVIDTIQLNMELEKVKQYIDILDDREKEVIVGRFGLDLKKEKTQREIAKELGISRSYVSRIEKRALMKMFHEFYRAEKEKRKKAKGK

Variants of: B1
Settings: with rpsk_bacsu sigK

effect of a mutation on the interaction | Variant
disrupting interaction | E44Q
